What was measured:
[1] = target: T1, ST2 on the effector cells (KU812, KU812/NF-κB-1#, HUVEC, HMC-1) (human, UniProt Q01638 19-556); experiment: cell-based or functional assay
T1 sequence (looked up): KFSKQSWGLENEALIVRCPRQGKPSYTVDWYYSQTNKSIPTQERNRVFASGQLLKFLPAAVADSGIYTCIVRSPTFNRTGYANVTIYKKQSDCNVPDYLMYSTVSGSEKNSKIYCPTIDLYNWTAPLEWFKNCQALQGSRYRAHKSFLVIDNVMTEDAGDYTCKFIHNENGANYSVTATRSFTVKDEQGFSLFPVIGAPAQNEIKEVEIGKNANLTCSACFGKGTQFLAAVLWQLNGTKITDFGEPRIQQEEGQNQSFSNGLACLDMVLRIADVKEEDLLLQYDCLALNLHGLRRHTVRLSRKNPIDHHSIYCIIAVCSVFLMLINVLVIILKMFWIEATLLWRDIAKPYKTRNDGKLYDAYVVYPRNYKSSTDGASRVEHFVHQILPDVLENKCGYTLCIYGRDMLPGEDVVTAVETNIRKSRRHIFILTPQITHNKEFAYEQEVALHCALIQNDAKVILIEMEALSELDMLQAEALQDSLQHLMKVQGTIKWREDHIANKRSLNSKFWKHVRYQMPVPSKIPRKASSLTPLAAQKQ

[2] = target: T1, ST2 on the effector cells (KU812, …); experiment: cell-based or functional assay; remark: listed apart in the source
Human ST2-fc (human) = Human ST2-fc (human) (UniProt Q01638); experiment: competition ELISA, coated ST2-fc, competitor IL33-his
Human ST2-his [3] = target: T2, Human ST2-his (human, UniProt Q01638-2 19-328, limits assumed); experiment: SPR Biacore X100, antibody captured on protein A chip, human ST2-his injected, pH 7.4
T2 construct: Expressed in CHO-K1; The printed range starts at Met1; also called human ST2 fused with a 6-histidine tag at the C-terminus
T2 sequence: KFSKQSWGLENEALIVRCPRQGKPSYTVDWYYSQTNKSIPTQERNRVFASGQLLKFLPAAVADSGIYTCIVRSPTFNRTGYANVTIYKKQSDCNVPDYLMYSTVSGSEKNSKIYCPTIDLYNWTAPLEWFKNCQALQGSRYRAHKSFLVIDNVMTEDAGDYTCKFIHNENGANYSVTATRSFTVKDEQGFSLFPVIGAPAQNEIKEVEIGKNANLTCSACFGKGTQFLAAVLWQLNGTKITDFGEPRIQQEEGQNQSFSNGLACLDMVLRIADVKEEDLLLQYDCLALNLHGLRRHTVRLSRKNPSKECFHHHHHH
Description: (§1) The experiment on the interaction between the anti-human ST2 antibodies and human ST2-his was performed using Biacore X100.
(§2) Each anti-human ST2 antibody was diluted to 2 µg/mL and captured on the surface of a protein A chip for a capture time of 60 s. Following the antibody capture, a solution of human ST2-his (2-fold gradient dilution from a starting concentration of 20 nM, to obtain 6 concentrations in total) was injected. Association was monitored for 180 s and dissociation was monitored for 700 s, and the sensor surface was regenerated by injecting a solution of glycine at pH 2.0. Kinetic data were analyzed using a simple 1:1 binding model.

[4] = target: T1, ST2 on the effector cells (KU812, …); experiment: cell-based or functional assay; remark: listed apart in the source
Human ST2-his [5] = target: T2, Human ST2-his; experiment: SPR Biacore X100, antibody captured on protein A chip, human ST2-his injected, dissociation at pH 5.5
Description: as §1, §2

[6] = target: T1, ST2 on the effector cells (KU812, …); experiment: cell-based or functional assay; remark: listed apart in the source
[7] = target: T1, ST2 on the effector cells (KU812, …); experiment: cell-based or functional assay; remark: listed apart in the source
[8] = target: T1, ST2 on the effector cells (KU812, …); experiment: cell-based or functional assay; remark: listed apart in the source
Human ST2-his [9] = target: T2, Human ST2-his; experiment: SPR Biacore X100, ratio of kd at pH 5.5 to kd at pH 7.4
Description: as §1, §2

Binder | IC50, inhibition of KU812-IL5 production promoted by reduced IL33 [1] [µg/mL] | Maximum inhibition rate, KU812-IL5 production by reduced IL33 [1] [%] | Relative activity, KU812-IL5 production by reduced IL33 [1] [%] | IC50, inhibition of KU812-IL5 production promoted by IL-33 (human IL33-his) [2] [µg/mL] | Maximum inhibition rate, KU812-IL5 production by IL-33 [2] [%] | Relative activity compared with CNTO7160, KU812-IL5 production by IL-33 [2] [%] | IC50 (Human ST2-fc (human)) [µg/mL] | Maximum inhibition rate (Human ST2-fc (human)) [%] | Relative activity compared with CNTO7160 (Human ST2-fc (human)) [%] | Kd (Human ST2-his [3]) [pM] | koff (Human ST2-his [3]) [s⁻¹] | kon (Human ST2-his [3]) [M⁻¹ s⁻¹] | IC50, inhibition of HMC-1 IL8 production promoted by IL33 [4] [µg/mL] | Maximum inhibition rate, HMC-1 IL8 production by IL33 [4] [%] | Relative activity, HMC-1 IL8 production by IL33 [4] [%] | Kd (Human ST2-his [5]) [pM] | koff (Human ST2-his [5]) [s⁻¹] | kon (Human ST2-his [5]) [M⁻¹ s⁻¹] | IC50, inhibition of activation of KU812-NF-κB reporter gene by IL33 [6] [µg/mL] | Maximum inhibition rate, KU812-NF-κB reporter gene [6] [%] | further results
5888-116-H0L1 (antibody, human IgG4 S228P, kappa, V domains shown, Humanized antibody) VH: QVQLVQSGAEVKKPGASVKVSCKASGYTFTDSEMYWVRQAPGQGLEWMGAIDPETGDTAFNQKFKGRVTMTRDTSTSTVYMELSSLRSEDTAVYYCARAFDNDNDDGFAYWGQGTMVTVSS VL: DIQMTQSPSSLSASVGDRVTITCSASSSVNYMHWYQQKPGKAPKRLIYDTSKLASGVPSRFSGSGSGTDYTFTISSLQPEDAATYYCQQWSSNPLTFGQGTKLEIKR | 0.124 | 75.1 | 1180 | 0.00929 | 98.3 | 656 | 0.0204 | 94.1 | 5200 | 259 | 0.000464 | 1.79e+06 | 0.00551 | 90.6 | 1830 | 474 | 0.0014 | 2.95e+06 | 0.013 | 95.7 | Relative activity compared with CNTO7160, KU812-NF-κB reporter gene [6]: 1540%; IC50, inhibition of KU812-IL5 production promoted by oxidized IL33 [7]: 0.0036 µg/mL; Maximum inhibition rate, KU812-IL5 production by oxidized IL33 [7]: 102%; Relative activity, KU812-IL5 production by oxidized IL33 [7]: 614%; IC50, inhibition of HUVEC-IL6 production promoted by IL33 [8]: 0.832 µg/mL; Maximum inhibition rate, HUVEC-IL6 production by IL33 [8]: 92.6%; Relative activity, HUVEC-IL6 production by IL33 [8]: 328%; kd ratio of pH 5.5/pH 7.4 (Human ST2-his [9]): 3.02
5888-153-H3L1 (antibody, human IgG4 S228P, kappa, V domains shown, Humanized antibody) VH: QVQLVQSGAEVKKPGASVKVSCKASGYTFTDYELHWVRQAPGQGLEWMGTIDPETGDTVYNQKFKARVTMTADKSTSTAYMELSSLRSEDTAVYYCTRAFYNDYDDAFAYWGQGTLVTVSS VL: EIVMTQSPATLSLSPGERATLSCSVSSSVSYMHWYQQKPGQAPRRLIYDTSKLASGIPARFSGSGSGTDYTLTISSLEPEDAAVYYCQQWNSSPLTFGGGTKVEIKR | 0.265 | 86.9 | 554 | 0.00815 | 97 | 742 | 0.553 | 93.7 | 228 | 97 | 0.000148 | 1.53e+06 | 0.0472 | 86.8 | 213 | 122 | 0.000232 | 1.9e+06 | 0.0394 | 86.1 | Relative activity compared with CNTO7160, KU812-NF-κB reporter gene [6]: 508%; IC50, inhibition of KU812-IL5 production promoted by oxidized IL33 [7]: 0.0136 µg/mL; Maximum inhibition rate, KU812-IL5 production by oxidized IL33 [7]: 101%; Relative activity, KU812-IL5 production by oxidized IL33 [7]: 162%; IC50, inhibition of HUVEC-IL6 production promoted by IL33 [8]: 1.64 µg/mL; Maximum inhibition rate, HUVEC-IL6 production by IL33 [8]: 93%; Relative activity, HUVEC-IL6 production by IL33 [8]: 167%; kd ratio of pH 5.5/pH 7.4 (Human ST2-his [9]): 1.57
5888-153-H0L1 (antibody, human IgG4 S228P, kappa, V domains shown, Humanized antibody) VH: QVQLVQSGAEVKKPGASVKVSCKASGYTFTDYELHWVRQAPGQGLEWMGTIDPETGDTVYNQKFKARVTMTRDTSTSTVYMELSSLRSEDTAVYYCARAFYNDYDDGFAYWGQGTLVTVSS VL: EIVMTQSPATLSLSPGERATLSCSVSSSVSYMHWYQQKPGQAPRRLIYDTSKLASGIPARFSGSGSGTDYTLTISSLEPEDAAVYYCQQWNSSPLTFGGGTKVEIKR | 0.389 | 83.6 | 377 | 0.0303 | 99.1 | 201 | 0.3 | 94.3 | 380 | 99.7 | 0.000176 | 1.76e+06 | 0.0359 | 87.2 | 280 | 70.6 | 0.000152 | 2.15e+06 | 0.0438 | 88.2 | Relative activity compared with CNTO7160, KU812-NF-κB reporter gene [6]: 458%; IC50, inhibition of KU812-IL5 production promoted by oxidized IL33 [7]: 0.0147 µg/mL; Maximum inhibition rate, KU812-IL5 production by oxidized IL33 [7]: 101%; Relative activity, KU812-IL5 production by oxidized IL33 [7]: 150%; IC50, inhibition of HUVEC-IL6 production promoted by IL33 [8]: 0.844 µg/mL; Maximum inhibition rate, HUVEC-IL6 production by IL33 [8]: 93%; Relative activity, HUVEC-IL6 production by IL33 [8]: 323%; kd ratio of pH 5.5/pH 7.4 (Human ST2-his [9]): 0.86

— US12624112 (MABWELL SHANGHAI BIOSCIENCE, dated 2026)
